Reference: US20240301033A1 (published 2024)

Tests used:
[1] = target: T1, human CD8 alpha (CD8A) on primary human CD8+ T cells (human, UniProt P01732 22-235); test: flow cytometry, human CD8+ T cells, 0.2 uM
T1 construct: whole, on cells
Method: (§1) Binding of the 190 ELISA hits to human and cynomologous monkey primary CD8 T cells was assessed by flow cytometry. The FN3 domain molecules were diluted to 2 μM and 0.2 μM in PBS and incubated with human or cynomologous monkey CD8+ T cells in 96-well format. After 1 hour at 4° C., the cells were washed once with PBS and then resuspended with an anti-FN3 domain antibody (PAB25) solution. Following this incubation, the cells were washed twice with PBS and a PE conjugated secondary antibody and a viability dye were added. Finally, cells were washed and resuspended in PBS for flow cytometric analysis using a BD Canto Instrument. Cells were gating on live cells and median fluorescence intensity of the bound Centyrins (PE channel) was calculated using Cytobank software.

[2] = target: T2, cynomolgus monkey CD8A on primary cynomolgus CD8+ T cells (cynomolgus monkey, UniProt P01732 23-235 (human entry)); test: flow cytometry, cyno CD8+ T cells, 2 uM
T2 construct: also called Cyno CD8alpha
Method: as §1

[3] = target: T2, cynomolgus monkey CD8A on primary …; test: flow cytometry, cyno CD8+ T cells, 0.2 uM
Method: as §1

[4] = target: T1, human CD8 alpha (CD8A) on primary human …; test: flow cytometry, human CD8+ T cells, 2 uM
Method: as §1

T1 sequence (P01732 22-235): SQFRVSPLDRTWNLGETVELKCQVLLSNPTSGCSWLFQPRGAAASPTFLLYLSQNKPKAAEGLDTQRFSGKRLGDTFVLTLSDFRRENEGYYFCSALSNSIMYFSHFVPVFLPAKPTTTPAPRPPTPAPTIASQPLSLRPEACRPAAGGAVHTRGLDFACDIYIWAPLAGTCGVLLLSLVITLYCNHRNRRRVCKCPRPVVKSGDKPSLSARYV
T2 sequence (P01732 other isoform, or with tags, fused parts or gaps limits assumed): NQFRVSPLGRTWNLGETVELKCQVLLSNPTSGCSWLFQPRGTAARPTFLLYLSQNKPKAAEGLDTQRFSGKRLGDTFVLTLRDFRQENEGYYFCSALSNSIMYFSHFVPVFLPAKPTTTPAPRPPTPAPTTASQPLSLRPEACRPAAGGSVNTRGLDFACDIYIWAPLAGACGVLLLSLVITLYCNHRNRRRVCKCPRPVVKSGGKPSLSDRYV

- Human T-cell Binding 0.2 uM (MFI) [1]: 219 MFI
- Cyno T-cell Binding 2 uM (MFI) [2]: 337 MFI
- Cyno T-cell Binding 0.2 uM (MFI) [3]: 336 MFI
- Human T-cell Binding 2 uM (MFI) [4]: 341 MFI
B1: Tencon25-His (designed binder, not shown: small tags and cut ends)
chain: LPAPKNLVVSEVTEDSARLSWTAPDAAFDSFLIQYQESEKVGEAIVLTVPGSERSYDLTGLKPGTEYTVSIYGVKGGHRSNPLSAIFTT
notes: kd not given
